Consider three molecules from US20160209421A1 (UNIVERSITY OF TOKYO, published 2016).

Bridge positions count the residues as written; N and C are the ends. Square brackets hold non-standard residues; d marks the D form. * marks the point of attachment. chloroacetamidine = chloroacetamidine warhead on ornithine δ-NH2, N=C(CCl)*; Ahp(2) = CCCCC[C@H](N)C(=O)O; Orn = NCCC[C@H](N)C(=O)O

One assay addresses T1, His-PAD4 (human, UniProt Q9UM07 1-663).
T1 construct: Immobilised on a Ni-NTA sensor chip for SPR; No other PAD4 is described; also called peptidyl arginine deaminase 4; not shown: His tag
Put plainly: SPR (Biacore T100, Ni-NTA sensor chip, His-PAD4 immobilized, peptide injected, 25 C). How it is done:
Analysis of a reaction rate was performed at 25° C. using Biacore T100 instrument (GE healthcare) and a Ni-NTA sensor chip. His-PAD4 was immobilized on a chip surface. In any experiment, modified HBS-EP+(10 mM HEPES-KOH [pH 7.4], 150 mM NaCl, 50 μM EDTA, 0.05% Tween 20, 0.1% DMSO) was used as a running buffer. The reaction rate data were corrected by injecting five peptides having respectively different concentrations for one minute at a flow rate (10 mM HEPES-KOH [pH 7.4], 150 mM NaCl, 50 μM EDTA, 0.05% Tween 20, 0.1% DMSO). Peptide dissociation was performed for one minute during injection and for 3 minutes after the last injection.
Background binding was monitored by performing blank buffer injection twice before sample injection and once after sample injection in order to double reference with the surface of a negative control having no His-PAD4 bound thereto but having nickel. The binding sensorgram, the binding sensorgram was analyzed using the Biacore software.
(In SPR one partner is held on a chip, and binding of the other changes the refractive index at the surface.)

For a further assay, the target named is Human PAD4 (human, UniProt Q9UM07 1-663). Put plainly: cell-based or functional assay.
Sequence of Human PAD4 (Q9UM07 whole entry): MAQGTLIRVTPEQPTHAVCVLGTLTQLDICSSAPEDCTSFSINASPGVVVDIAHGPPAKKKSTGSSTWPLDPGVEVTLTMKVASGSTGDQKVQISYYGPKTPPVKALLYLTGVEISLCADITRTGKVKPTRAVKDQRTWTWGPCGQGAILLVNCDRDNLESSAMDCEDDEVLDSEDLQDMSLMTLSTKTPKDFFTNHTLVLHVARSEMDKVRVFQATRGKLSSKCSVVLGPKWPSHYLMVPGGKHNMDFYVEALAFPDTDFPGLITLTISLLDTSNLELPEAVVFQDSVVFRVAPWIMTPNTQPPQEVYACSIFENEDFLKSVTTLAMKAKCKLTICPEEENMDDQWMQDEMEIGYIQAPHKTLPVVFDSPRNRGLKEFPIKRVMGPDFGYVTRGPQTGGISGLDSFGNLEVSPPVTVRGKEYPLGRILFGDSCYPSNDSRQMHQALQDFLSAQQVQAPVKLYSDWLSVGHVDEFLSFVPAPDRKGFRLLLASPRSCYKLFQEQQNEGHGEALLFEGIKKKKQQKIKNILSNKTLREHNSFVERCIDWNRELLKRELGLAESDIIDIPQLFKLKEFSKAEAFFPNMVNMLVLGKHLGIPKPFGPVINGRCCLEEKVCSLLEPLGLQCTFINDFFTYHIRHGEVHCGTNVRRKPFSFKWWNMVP

T1 sequence (Q9UM07 whole entry): as above

B1: VB1C12 peptide (peptide)
peptide: {CH2CO}-[dF]NA[Ahp(2)]YPYRPP[Ahp(2)]TSC-NH2
modifications: thioether N-14
SMILES: CCCCC[C@@H]1NC(=O)[C@H](C)NC(=O)[C@H](CC(N)=O)NC(=O)[C@@H](Cc2ccccc2)NC(=O)CSC[C@@H](C(N)=O)NC(=O)[C@H](CO)NC(=O)[C@H]([C@@H](C)O)NC(=O)[C@H](CCCCC)NC(=O)[C@@H]2CCCN2C(=O)[C@@H]2CCCN2C(=O)[C@H](CCCNC(=N)N)NC(=O)[C@H](Cc2ccc(O)cc2)NC(=O)[C@@H]2CCCN2C(=O)[C@H](Cc2ccc(O)cc2)NC1=O
One may read the Kd as the concentration at which binding is half-saturated. Read a high Kd as a looser complex. Broadly, the koff is a measure of how fast the partners let go of each other. Lower therefore signals a long-lived complex. What is called kon is a measure of how fast the partners come together. Low readings indicate slow association, high ones fast association. B1: in the assay with His-PAD4, the affinity, expressed as Kd, was 55 nM; the koff is 0.00664 s⁻¹; the kon was 121000 M⁻¹ s⁻¹.

B2: VB1C20 peptide (peptide)
peptide: {CH2CO}-[dF]DA[Ahp(2)]YPFRPP[Ahp(2)]AHC-NH2
modifications: thioether N-14
SMILES: CCCCC[C@@H]1NC(=O)[C@H](C)NC(=O)[C@H](CC(=O)O)NC(=O)[C@@H](Cc2ccccc2)NC(=O)CSC[C@@H](C(N)=O)NC(=O)[C@H](Cc2c[nH]cn2)NC(=O)[C@H](C)NC(=O)[C@H](CCCCC)NC(=O)[C@@H]2CCCN2C(=O)[C@@H]2CCCN2C(=O)[C@H](CCCNC(=N)N)NC(=O)[C@H](Cc2ccccc2)NC(=O)[C@@H]2CCCN2C(=O)[C@H](Cc2ccc(O)cc2)NC1=O
As to B2, in the assay with His-PAD4, the Kd was 38.7 nM, the koff is 0.00356 s⁻¹ and the kon was 92100 M⁻¹ s⁻¹.

B3: VB1C12-Cl-amidine analog (peptide)
peptide: {CH2CO}-[dF]NA[Ahp(2)]YPY[Orn](chloroacetamidine)PP[Ahp(2)]TSC-NH2
modifications: thioether N-14
SMILES: CCCCC[C@@H]1NC(=O)[C@H](C)NC(=O)[C@H](CC(N)=O)NC(=O)[C@@H](Cc2ccccc2)NC(=O)CSC[C@@H](C(N)=O)NC(=O)[C@H](CO)NC(=O)[C@H]([C@@H](C)O)NC(=O)[C@H](CCCCC)NC(=O)[C@@H]2CCCN2C(=O)[C@@H]2CCCN2C(=O)[C@H](CCCNC(=N)CCl)NC(=O)[C@H](Cc2ccc(O)cc2)NC(=O)[C@@H]2CCCN2C(=O)[C@H](Cc2ccc(O)cc2)NC1=O
Take B3: the “IC50 (read off the curve)” value with Human PAD4 is approximately 8000 nM.
